Source: article PMC5161705 (Nature, 2016)

B1: SecB (natural protein)
chain: MSEQNNTEMTFQIQRIYTKDISFEAPNAPHVFQKDWQPEVKLDLDTASSQLADDVYEVVLRVTVTASLGEETAFLCEVQQGGIFSIAGIEGTQMAHCLGAYCPNILFPYARECITSMVSRGTFPQLNLAPVNFDALFMNYLQQQAGEGTEEHQDA

Key:
SecB = biological target: B1; assay: NMR titration
[1] = biological target: T1, alkaline phosphatase (PhoA) (E. coli, UniProt P00634 1-471 = phosphatase); assay: ITC
NMR structure = biological target: the molecule itself; assay: NMR structure
[2] = biological target: T1, alkaline phosphatase (PhoA); assay: SEC-MALS
[3] = biological target: maltose binding protein (MBP), MBP^1–396 (E. coli, UniProt P0AEX9 1-396 = MBP); assay: SEC-MALS

Binder	binding result (SecB)	other results
MBP^260–336 (domain or fragment) not shown	binds	
MBP^29–99 (domain or fragment) not shown	binds	
triple mutant SecB (SecB™), V40A/L42A/L44A (natural protein) MSEQNNTEMTFQIQRIYTKDISFEAPNAPHVFQKDWQPEAKADADTASSQLADDVYEVVLRVTVTASLGEETAFLCEVQQGGIFSIAGIEGTQMAHCLGAYCPNILFPYARECITSMVSRGTFPQLNLAPVNFDALFMNYLQQQAGEGTEEHQ		fold reduction in affinity against wild type SecB [1]: 40 fold
MBP^160–201 (domain or fragment) not shown	binds	
MBP^331–396 (domain or fragment) not shown	binds	
B1		binding result (NMR structure): binds; stoichiometry N [2]: 1 SecB:PhoA; stoichiometry N [3]: 1 SecB:MBP
MBP^67–99 (domain or fragment) not shown	binds	
MBP^198–265 (domain or fragment) not shown	binds	
MBP^97–164 (domain or fragment) not shown	binds	
